Data: the supplement of paper PMC10567573

B1: ZNF449 (parent)
chain: CTHCSKSFRQRAGLIMHQVTHFRG
B2: TRIM63 (parent)
chain: QRITQEQEKKLSFIEALIQQYQEQ

Variants of: B1
Assay: protein stability index of a GFP-peptide fusion (GPS, HEK-293T) (PSI 1-6); higher = more stable
Details: c terminus: a fixed tail appended
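Further: lentivirally expressed fusions sorted by FACS into six bins by GFP to DsRed ratio, PSI derived from sequencing read proportions per bin multiplied by bin number.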

Row | Variant | protein stability index
1 | CTHCSKKFRQRAGLIMHQVTHFRG [S7K] | 2.62
2 | CTHCSKTFRQRAGLIMHQVTHFRG [S7T] | 1.08
3 | CTHCSKFFRQRAGLIMHQVTHFRG [S7F] | 2.49
4 | CTHCSKMFRQRAGLIMHQVTHFRG [S7M] | 1.57
5 | CTHCTKSFRQRAGLIMHQVTHFRG [S5T] | 1.49
6 | CTHCEKSFRQRAGLIMHQVTHFRG [S5E] | 1.67
7 | CTHCAKSFRQRAGLIMHQVTHFRG [S5A] | 1.98
8 | CTHCYKSFRQRAGLIMHQVTHFRG [S5Y] | 2.75
9 | CTHCPKSFRQRAGLIMHQVTHFRG [S5P] | 2.28
10 | CTHCHKSFRQRAGLIMHQVTHFRG [S5H] | 2.03
11 | CTHCRKSFRQRAGLIMHQVTHFRG [S5R] | 1.7
12 | CTHCNKSFRQRAGLIMHQVTHFRG [S5N] | 1.88
13 | CTHCCKSFRQRAGLIMHQVTHFRG [S5C] | 2.1
14 | CTHCLKSFRQRAGLIMHQVTHFRG [S5L] | 1.49
15 | CTHCGKSFRQRAGLIMHQVTHFRG [S5G] | 2.06
16 | CTHCDKSFRQRAGLIMHQVTHFRG [S5D] | 1.73
17 | CTHCWKSFRQRAGLIMHQVTHFRG [S5W] | 2.06
18 | CTHCMKSFRQRAGLIMHQVTHFRG [S5M] | 1.56
19 | CTHCFKSFRQRAGLIMHQVTHFRG [S5F] | 1.7
20 | CTHCKKSFRQRAGLIMHQVTHFRG [S5K] | 2.52
21 | CTHCSKSPRQRAGLIMHQVTHFRG [F8P] | 1.81
22 | CTHCSKSNRQRAGLIMHQVTHFRG [F8N] | 2.04
23 | CTHCSKSRRQRAGLIMHQVTHFRG [F8R] | 2.1
24 | CTHCSKSQRQRAGLIMHQVTHFRG [F8Q] | 2.17
25 | CTHCSKSERQRAGLIMHQVTHFRG [F8E] | 2.19
26 | CTHCSKSLRQRAGLIMHQVTHFRG [F8L] | 1.79

Row | Variant | protein stability index
27 | CTHCSKSCRQRAGLIMHQVTHFRG [F8C] | 2.74
28 | CTHCSKSYRQRAGLIMHQVTHFRG [F8Y] | 3.03
29 | CTHCSKSMRQRAGLIMHQVTHFRG [F8M] | 1.38
30 | CTHCSKSIRQRAGLIMHQVTHFRG [F8I] | 2.15
31 | CTHCSKSTRQRAGLIMHQVTHFRG [F8T] | 1.7
32 | CTHCSKSSRQRAGLIMHQVTHFRG [F8S] | 2.43
33 | CTHCSKSKRQRAGLIMHQVTHFRG [F8K] | 1.9
34 | CTHCSKSHRQRAGLIMHQVTHFRG [F8H] | 1.44
35 | CTHCSKSARQRAGLIMHQVTHFRG [F8A] | 1.91
36 | CTHCSKSDRQRAGLIMHQVTHFRG [F8D] | 1.54
37 | CTHCSKSVRQRAGLIMHQVTHFRG [F8V] | 1.07
38 | CTFCSKSFRQRAGLIMHQVTHFRG [H3F] | 2.09
39 | CTPCSKSFRQRAGLIMHQVTHFRG [H3P] | 1.04
40 | CTDCSKSFRQRAGLIMHQVTHFRG [H3D] | 3.44
41 | CTNCSKSFRQRAGLIMHQVTHFRG [H3N] | 2.18
42 | CTECSKSFRQRAGLIMHQVTHFRG [H3E] | 2.11
43 | CTTCSKSFRQRAGLIMHQVTHFRG [H3T] | 2.09
44 | CTYCSKSFRQRAGLIMHQVTHFRG [H3Y] | 2.28
45 | CTMCSKSFRQRAGLIMHQVTHFRG [H3M] | 2.42
46 | CTRCSKSFRQRAGLIMHQVTHFRG [H3R] | 1.77
47 | CTWCSKSFRQRAGLIMHQVTHFRG [H3W] | 1.38
48 | CTSCSKSFRQRAGLIMHQVTHFRG [H3S] | 1.66
49 | CTLCSKSFRQRAGLIMHQVTHFRG [H3L] | 2.08
50 | CTKCSKSFRQRAGLIMHQVTHFRG [H3K] | 2.22
51 | CTQCSKSFRQRAGLIMHQVTHFRG [H3Q] | 1.45

Variants of: B2
Assay: as above
Details: c terminus: a fixed tail appended

Row | Variant | protein stability index
52 | QRITQEQEKKLSFIEALIQQYQHQ [E23H] | 2.14
53 | QRITQEQEKKLSFIEALIQQYQNQ [E23N] | 1.9
54 | QRITQEQEKKLSFIEALIQQYQRQ [E23R] | 1.97
55 | QRITQEQEKKLSFIEALIQQYQPQ [E23P] | 1.95
56 | QRITQEQEKKLSFIEALIQQYQFQ [E23F] | 2.01
57 | QRITQEQEKKLSFIEALIQQYQDQ [E23D] | 2.62
58 | QRITQEQEKKLSFIEALIQQYQTQ [E23T] | 1.94
59 | QRITQEQEKKLSFIEALIQQYQGQ [E23G] | 2.57
60 | QRITQEQEKKLSFIEALIQQYQYQ [E23Y] | 1.99
61 | QRITQEQEKKLSFIEALIQQYQIQ [E23I] | 1.54
62 | QRITQEQEKKLSFIEALIQQYQAQ [E23A] | 1.96
63 | QRITQEQEKKLSFIEALIQQYQSQ [E23S] | 2
64 | QRITQEQEKKLSFIEALIQQYQQQ [E23Q] | 2.18
65 | QRITQEQEKKLSFIEALIQQYQCQ [E23C] | 2.37
66 | QRITQEQEKKLSFIEALIQQYQVQ [E23V] | 2.34
67 | QRITQEQEKKLSFIEALIQQYQLQ [E23L] | 2.65
68 | QRITQEQEKKLSFIEALIQQYQKQ [E23K] | 2.4
69 | QRITQEQEKKLSFIEALIQQYQWQ [E23W] | 2.1
70 | QRITQEQEKKLSFIEALIQQYQMQ [E23M] | 1.51
71 | QRITQEQEKKLSFIEALIQQYNEQ [Q22N] | 2.79
72 | QRITQEQEKKLSFIEALIQQYSEQ [Q22S] | 2.41
73 | QRITQEQEKKLSFIEALIQQYREQ [Q22R] | 2.42

Row | Variant | protein stability index
74 | QRITQEQEKKLSFIEALIQQYTEQ [Q22T] | 2.22
75 | QRITQEQEKKLSFIEALIQQYPEQ [Q22P] | 3.12
76 | QRITQEQEKKLSFIEALIQQYYEQ [Q22Y] | 2.62
77 | QRITQEQEKKLSFIEALIQQYQED [Q24D] | 1.82
78 | QRITQEQEKKLSFIEALIQQYQEL [Q24L] | 2.16
79 | QRITQEQEKKLSFIEALIQQYQEE [Q24E] | 2.14
80 | QRITQEQEKKLSFIEALIQQYQEI [Q24I] | 2.52
81 | QRITQEQEKKLSFIEALIQQYQER [Q24R] | 2.06
82 | QRITQEQEKKLSFIEALIQQYQEF [Q24F] | 1.97
83 | QRITQEQEKKLSFIEALIQQYQEP [Q24P] | 2.68
84 | QRITQEQEKKLSFIEALIQQYQET [Q24T] | 2.36
85 | QRITQEQEKKLSFIEALIQQYQEH [Q24H] | 2.49
86 | QRITQEQEKKLSFIEALIQQYQEK [Q24K] | 2.06
87 | QRITQEQEKKLSFIEALIQQYQEY [Q24Y] | 1.66
88 | QRITQEQEKKLSFIEALIQQYQES [Q24S] | 1.98
89 | QRITQEQEKKLSFIEALIQQYQEM [Q24M] | 2.57
90 | QRITQEQEKKLSFIEALIQQYQEA [Q24A] | 2.41
91 | QRITQEQEKKLSFIEALIQQYQEW [Q24W] | 1.46
92 | QRITQEQEKKLSFIEALIQQYQEC [Q24C] | 2.51
93 | QRITQEQEKKLSFIEALIQQYQEV [Q24V] | 2.24
94 | QRITQEQEKKLSFIEALIQQYQEN [Q24N] | 2.25
